Source: paper PMC12583694, “RNF114 and RNF166 exemplify reader-writer E3 ligases that extend K11 polyubiquitin onto sites of MARUbylation” (The EMBO Journal, 2025)

Biological target: ADPr-TAMRA (ADPrT)
Test: fluorescence polarisation
Conditions: read at the highest titration point, about 75 µM RNF114 (left graph); parent: est. 50; read off a plot

response | Substance
6 | RNF114 (wild type, full-length) (from UniProt Q9Y508) W181D; G182E
13 | RNF114 (wild type, full-length) (from UniProt Q9Y508) R198E
